Values quoted from earlier work as cited in publication PMC2645917 (Journal of medicinal chemistry, 2008).

Settings: in vivo, iv

## exenatide
  Half-life after i.v. injection: 26 min
